Consider five substances from publication PMC9486129, “An evolutionary divergent thermodynamic brake in ZAP-70 fine-tunes the kinetic proofreading in T cells” (The Journal of Biological Chemistry, 2022).

Broadly, the pKd is −log10 of the Kd, conventionally taken in molar units. A higher pKd goes with a low Kd.

pKd: −log10 of the molar value.

Test [1] deals with ZAP-70 tSH2 WT (1–256). Description: stopped-flow fluorescence; pre-steady-state tryptophan fluorescence, 10 °C; 100 nM tSH2 domain mixed with 30 μM ITAM peptide in 20 mM Tris pH 8.0, 150 mM NaCl, 5% glycerol, 5 mM β-mercaptoethanol; 1 s (fast) and 200 s (slow) transients; observed rates from one-site association fit.
Test [2] concerns the target ZAP-70 tSH2 R39A. The experiment in a line: other fluorescence titration; steady-state intrinsic tryptophan fluorescence, 25 °C; 0.5 μM tSH2 domain titrated with ITAM peptide; excitation 295 nm, emission 300-400 nm; Hill equation fit.
Test [3] concerns the target ZAP-70 tSH2 R39A. The experiment in a line: stopped-flow fluorescence; pre-steady-state tryptophan fluorescence, 10 °C; 100 nM tSH2 domain mixed with 30 μM ITAM peptide in 20 mM Tris pH 8.0, 150 mM NaCl, 5% glycerol, 5 mM β-mercaptoethanol; 1 s (fast) and 200 s (slow) transients; observed rates from one-site association fit.
The target of the next test is ZAP-70 tSH2 R43P. The test is described as above.
For the next test, the target named is ZAP-70 tSH2 F117A. The test is described as above.
In another test the target is ZAP-70 tSH2 R192A. The test is described as above.
Test [4] addresses ZAP-70 tSH2 WT (1–256). Description: other fluorescence titration; steady-state intrinsic tryptophan fluorescence, 25 °C; 0.5 μM tSH2 domain titrated with ITAM peptide; excitation 295 nm, emission 300-400 nm; Hill equation fit.
Test [5] deals with ZAP-70 tandem SH2 domain R192A (1-256). The experiment in a line: ITC; Malvern PEAQ-ITC, 20 °C; C-SH2 mutant tSH2 (R192A, printed R190A in the methods) in 20 mM Hepes pH 8.2, 150 mM NaCl, 5 mM β-mercaptoethanol; titrated with 300 μM peptide; one-site binding model; constant printed under the column Kd2. (Isothermal titration calorimetry measures the heat released or taken up as one component is titrated into another.)

In the test with ZAP-70 tSH2 WT (1–256) [1], ITAM-Y2P-ζ1 E13A (peptide) returned a kobs fast of 24.4 s⁻¹ and a kobs slow of 0.022 s⁻¹.

Substance “doubly phosphorylated ITAM-ζ1 peptide (ITAM-Y2P-ζ1) (from UniProt P20963 61-89)” had a Kd1 with ZAP-70 tSH2 R39A [2] of 8 nM. For the same substance, the kobs fast was determined as 24.8 s⁻¹ in the test with ZAP-70 tSH2 R39A [3], 28 s⁻¹ with ZAP-70 tSH2 R43P, 23.9 s⁻¹ with ZAP-70 tSH2 WT (1–256) [1] and 21.8 s⁻¹ in the test with ZAP-70 tSH2 F117A. Moreover, the kobs slow turned out to be 2.25 s⁻¹ with ZAP-70 tSH2 R43P, 0.262 s⁻¹ with ZAP-70 tSH2 WT (1–256) [1], 0.0517 s⁻¹ with ZAP-70 tSH2 F117A and 0.006 s⁻¹ with ZAP-70 tSH2 R192A.

For “doubly phosphorylated ITAM-ζ3 peptide (ITAM-Y2P-ζ3) (from UniProt P20963 131-159)”, the Kd1 with ZAP-70 tSH2 WT (1–256) [4] stood at 6.8 nM. In the test with ZAP-70 tSH2 WT (1–256) [1], this substance displayed a kobs fast of 21.4 s⁻¹ and a kobs slow of 0.012 s⁻¹.

For “doubly-phosphorylated ITAM-ζ1 peptide with E13A”, the pKd in test [5] was 5.01.

As for “single phosphotyrosine ITAM-ζ1 peptide (ITAM-YP-ζ1) (from UniProt P20963 61-89)”, the Kd1 with ZAP-70 tSH2 WT (1–256) [4] was determined as 3.7 nM. Besides, the kobs fast in the test with ZAP-70 tSH2 WT (1–256) [1] turned out to be 28.6 s⁻¹.
